The data set has as its target His-P10 outer capsid protein (Rice black-streaked dwarf virus (RBSDV), UniProt D2Y4Q6 1-558). Kind of data set: ELONA. The settings on record: protein: recombinant; tags: N-terminal 6xHis (pET-15b).

B1: F17 (ssDNA)
DNA: TGACACCGTACCTGCTCTGCCGTAGTGATCCTCCTTAACAGTGACCTATAGATCGTTCGTCGTATTTGCTTTGACAATCCTTCTCAGATACTCTCCCGAAGCACGCCAGGGACTAT
Turning to B1, the binding signal was found to be 7.55 A450 ratio P10/BSA.

B2: R13 (ssDNA)
DNA: ATAGTCCCTGGCGTGCTTGCATGCTTGGCCCTGCACCGCCTTCGGTCTTTCGCCGACCTCGTCGTTTATTCTATCGGGTTATAAGGATAATGCGGGGTAGAGCAGGTACGGTGTCA
Turning to B2, the binding signal came out at 1.26 A450 ratio P10/BSA.

These data come from article PMC7692627.
